Data on 9 molecules can be found in patent publication US6528618B1, “Anti-inflammatory peptides derived from C-reactive protein” (Yeda Research and Development Co. Ltd., priority 1997, dated 2003).

Where two headings read alike, the source gives them in different places. Where a SMILES comes first, the peptide text is derived from it.

Data set [1] addresses T1, human leukocyte elastase (hLE) (Homo sapiens, UniProt P08246).
T1 construct: Neutrophils (1.4 billion) were isolated from whole blood obtained from a single healthy laboratory donor; from tissue; host or cells: neutrophils from whole blood of a single healthy donor
T1 sequence (P08246 30-247 limits assumed): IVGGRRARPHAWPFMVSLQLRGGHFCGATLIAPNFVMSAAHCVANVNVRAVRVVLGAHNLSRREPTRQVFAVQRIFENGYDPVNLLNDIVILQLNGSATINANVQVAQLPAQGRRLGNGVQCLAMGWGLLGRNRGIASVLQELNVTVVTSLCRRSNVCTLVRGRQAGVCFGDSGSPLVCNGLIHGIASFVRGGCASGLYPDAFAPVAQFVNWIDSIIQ
The experiment in a line: In vitro inhibition of hLE (cleavage of MeOSuc-AAPV-NA). It counts as biochemical.

The target in data set [2] is T2, hCG (Homo sapiens, UniProt P08311).
T2 construct: Neutrophils (1.4 billion) were isolated from whole blood obtained from a single healthy laboratory donor; from tissue; host or cells: neutrophils from whole blood of a single healthy donor
T2 sequence (P08311 21-243 limits assumed): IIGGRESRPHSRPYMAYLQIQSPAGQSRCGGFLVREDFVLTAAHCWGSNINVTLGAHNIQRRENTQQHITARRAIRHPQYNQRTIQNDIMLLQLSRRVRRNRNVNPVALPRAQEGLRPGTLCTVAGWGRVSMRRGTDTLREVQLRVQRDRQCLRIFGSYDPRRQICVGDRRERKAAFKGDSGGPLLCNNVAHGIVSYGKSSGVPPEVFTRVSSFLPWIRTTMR
The experiment in a line: Resistance to proteolysis by hCG, degradation profile by RP-HPLC. It is filed as in vitro ADME. Particulars: PBS, 37° C., up to 12 hours. On the procedure:
(§1) (vii) Degradation profiles of peptides by RP-HPLC: Several active peptide inhibitors were dissolved in calcium- and magnesium-free phosphate-buffered saline (PBS), 125 μg /250 μL, mixed with […] of hLE or hCG in 250 μL PBS and incubated at 37° C. Periodically (up to 12 hrs), 100 μL samples were removed from the reaction vessel. The samples were diluted with 150 μL of 0.1% TFA, frozen with liquid nitrogen, and stored at −20° C. prior to HPLC analysis.
(§2) The stability of the peptide bonds in peptide 6 were evaluated by incubating the peptide with hLE and hCG and monitoring degradation profiles of the peptide by reverse-phase HPLC. Briefly, peptide 6 was dissolved in calcium- and magnesium-free phosphate-buffered saline (PBS), 50 μg/250 μL, mixed with 3 μg of hLE or hCG in 250 μL PBS and incubated at 37° C. Periodically, after 1,3,8, and 12 hrs incubation, 100 μL samples were removed from the reaction vessel. The samples were diluted with 150 μL of 0.1% TFA, frozen with liquid nitrogen, and stored at −20° C. prior to HPLC analysis.

Data set [3] addresses T3, hLE (Homo sapiens, UniProt P08246).
T3 construct: Neutrophils (1.4 billion) were isolated from whole blood obtained from a single healthy laboratory donor; from tissue; host or cells: neutrophils from whole blood of a single healthy donor
T3 sequence (P08246 30-247 limits assumed): T1 sequence (P08246 30-247 limits assumed)
As to the kind of experiment: Resistance to proteolysis by hLE, degradation profile by RP-HPLC. It is filed as in vitro ADME. As to conditions: PBS, 37° C., up to 12 hours. On the procedure: as §1, §2

Data set [4] deals with T4, human leukocyte cathepsin G (hCG) (Homo sapiens, UniProt P08311).
T4 construct: Neutrophils (1.4 billion) were isolated from whole blood obtained from a single healthy laboratory donor; from tissue; host or cells: neutrophils from whole blood of a single healthy donor
T4 sequence (P08311 21-243 limits assumed): T2 sequence (P08311 21-243 limits assumed)
As to the kind of experiment: In vitro inhibition of hCG (cleavage of Suc-AAPF-NA). It counts as biochemical. In outline: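 Purified hCG (1.2 μg, about 40 picomol) incubated with 600 μM Suc-AAPF-NA and CRP-derived peptides at 1–100 μM in 100 mM Hepes pH 7.4, 0.05% Brij-35, 5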

In data set [5] the target is T5, human leukocyte elastase (human, UniProt P08246 30-267).
T5 construct: mature; Active enzyme purified from human neutrophils; also called hLE
T5 sequence (looked up): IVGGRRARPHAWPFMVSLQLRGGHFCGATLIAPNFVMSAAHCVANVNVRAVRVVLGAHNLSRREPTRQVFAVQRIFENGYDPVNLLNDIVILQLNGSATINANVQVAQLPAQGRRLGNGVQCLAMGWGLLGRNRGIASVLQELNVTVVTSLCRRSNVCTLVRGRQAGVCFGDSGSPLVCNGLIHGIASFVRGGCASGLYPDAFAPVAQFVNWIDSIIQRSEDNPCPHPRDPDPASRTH
The experiment in a line: hLE enzyme inhibition kinetics, cleavage of MeOSuc-AAPV-NA. On the procedure:
(§3) (v) Inhibition experiments with hLE: Peptides were dissolved in 100 mM Hepes buffer pH 7.4 containing 0.1% Brij-35 with 10%. DMSO to yield 300 µM solutions, which were used to make further dilutions with the same buffer, and 80 µL aliquots were added in duplicates to 96-well plates. The substrate, 600 µM MeOSuc-AAPV-NA in the same buffer with 5% DMSO, was added to each well in addition to the blank wells, and the plate was placed in the plate reader equilibrated to 37 C (Dynateck MR-6000). Lyophilized aliquots of hLE were dissolved in 1600 µL of 100 mM Hepes buffer without DMSO, and 80 µL of the enzyme solution was added to the peptides and substrate to initiate the reaction. The kinetics program read the plate at 405 nm every 2 min for 20 min (with a 3 sec shaking period between readings), and plotted the results as well as the average of each duplicate. The final volume was 240 µL containing: 5% DMSO, 1–100 µM of peptide, 200 µM substrate, and 0.75 µg (~25 picomol) enzyme.
(§4) The hLE inhibitory capability of CRP-derived peptides was evaluated by inhibiting the enzymatic cleavage of MeOSuc-AAPV-NA as described in Materials and Methods (section v).

Data set [6] deals with T6, human leukocyte cathepsin G (human, UniProt P08311 21-244).
T6 construct: mature; Active enzyme purified from human neutrophils; also called hCG; human Cathepsin G
T6 sequence (looked up): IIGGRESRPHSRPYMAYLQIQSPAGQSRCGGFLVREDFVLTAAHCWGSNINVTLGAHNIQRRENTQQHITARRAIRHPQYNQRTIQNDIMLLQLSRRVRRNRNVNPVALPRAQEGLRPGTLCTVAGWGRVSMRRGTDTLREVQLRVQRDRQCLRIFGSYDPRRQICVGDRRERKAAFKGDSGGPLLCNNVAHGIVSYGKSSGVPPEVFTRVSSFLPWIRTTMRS
As to the kind of experiment: hCG enzyme inhibition kinetics, cleavage of Suc-AAPF-NA. On the procedure:
as §3
(§5) vi) Inhibition experiments with hCG: Similar conditions to hLE inhibition experiments were used except the substrate: 80 µL of 1.80 mM Suc-AAPF-NA. The enzyme was dissolved in 800 µL buffer, and the reaction was monitored every 6 min for 1 hour. The final volume was 240 µL containing: 5% DMSO, 1–100 µM peptide, 600 µM substrate, and 1.2 µg enzyme (about 40 picomol).

The target in data set [7] is T5, human leukocyte elastase. The experiment in a line: hLE enzyme inhibition kinetics, cleavage of MeOSuc-AAPV-NA. On the procedure: as §3, §4
The source holds these as a separate data set.

Data set [8] concerns the target T6, human leukocyte cathepsin G. The experiment in a line: hCG enzyme inhibition kinetics, cleavage of Suc-AAPF-NA. On the procedure: as §3, §5
This is another data set of the same source.

Data set [9] concerns the target specific receptors on monocytes. Particulars: in vitro; read-out: Kd, binding to receptors on monocytes; cited from earlier work.
Data set [10] relates to specific receptors on human neutrophils. As to conditions: in vitro; read-out: Kd, binding to receptors on human neutrophils; cited from earlier work.
Data set [11] has as its target T7, hLE (Homo sapiens, UniProt P08246).
T7 sequence (P08246 30-267): T5 sequence (looked up)
As to conditions: CRP as a whole protein; cited from earlier work.

Where [12] appears, read: peptide concentrations above 50 μM.

On to `CC[C@H](C)[C@H](NC(=O)[C@H](CC(=O)O)NC(=O)[C@H](CCCCN)NC(=O)[C@H](CO)NC(=O)[C@H](Cc1c[nH]c2ccccc12)NC(=O)[C@H](Cc1ccccc1)NC(=O)[C@@H](NC(=O)[C@H](CC(C)C)NC(=O)[C@@H](NC(=O)[C@@H](N)CCC(=O)O)[C@@H](C)CC)[C@@H](C)CC)C(=O)NCC(=O)N[C@@H](Cc1ccc(O)cc1)C(=O)N[C@@H](CO)C(=O)N[C@@H](Cc1ccccc1)C(=O)N[C@H](C(=O)O)[C@@H](C)O` [Peptide 6, Glu-Ile-Leu-Ile-Phe-Trp-Ser-Lys-Asp-Ile-Gly-Tyr-Ser-Phe-Thr] (H-EILIFWSKDIGYSFT-OH; N-terminus and C-terminus assumed), for which the “hLE inhibitory activity (in words)” value in [1] was “submicromolar concentrations”. The Ki in data set [1] (hLE Ki [μM], Table 1, substrate MeOSuc-AAPV-NA 200 μM, pH 7.4, 37 C) came out at 0.18 ± 0.03 µM; in data set [4] (hCG Ki [μM], Table 1, substrate Suc-AAPF-NA 600 μM, pH 7.4), 0.25 ± 0.05 µM. Besides, the “hLE inhibition at concentrations above 50 μM” value in data set [1] (setting [12]) is “Total inhibition”. In addition, the “cleavage products after incubation with hCG” value in [2] is recorded as “no cleavage products were observed”. Also, the “cleavage products after incubation with hLE” value in data set [3] was “no cleavage products were observed”. Moreover, the “hCG inhibitory activity (in words)” value in [4] is listed as “submicromolar concentrations”. In data set [4] (setting [12]), the “hCG inhibition at concentrations above 50 μM” value was “total inhibition”.

For the molecule EILIFWSKDIGY (Synthetic; also called pep13) [peptide 13 (CRP62-73)], the Ki is 1.1 µM in data set [5] and 4 µM in [6].

In the case of EILIFWSKDI (Synthetic; also called pep14) [peptide 14 (CRP62-71)], the Ki in data set [5] was determined as 6.7 µM; in data set [6], 6 µM.

Take ILFEVPEVTVAPVHI (Synthetic 15-mer) [peptide 10 (CRP82-96)]: the values for the inhibition constant (Ki) in [7] and in data set [8] were 55 µM and 150 µM, respectively.

B1: peptide 18 (peptide)
peptide: DILIFWSKDIGYSFT
notes: Analog of peptide 6 (CRP62-76) with Glu62 replaced by Asp; also called pep18
Consider B1, for which the inhibitory constant (Ki) was determined as 2.2 µM in data set [5] and 2.6 µM in data set [6]. The “fold lower inhibitory activity against peptide 6” value in [7] stood at 10 fold.

B2: peptide 19 (peptide)
peptide: EILIFWPKDIGYSFT
notes: Analog of peptide 6 (CRP62-76) with Ser68 replaced by Pro
Turning to B2, the affinity in [6] corresponds to a Ki of 30 µM.

With ILIFWSKDIGYSFT (Synthetic) [peptide 11 (CRP63-76)], the inhibition constant (Ki) in data set [5] turned out to be 4.5 µM; in [6], 15 µM. Besides, in data set [7], the “fold decrease in hLE inhibition against peptide 6” value was ~20 fold.

KRQDNEILIFWSKDI (Synthetic 15-mer) [peptide 5 (CRP57-71)]: the Ki in [7] came to 85 µM; in data set [8] it was 180 µM.

B3: CRP: plasma protein classified as a major acute phase reactant; five identical sub-units of 206 amino acids (pentraxin) (protein, listed as Homo sapiens)
chain: ETDMSRKAFVFPKESDTSYVSLKAPLTKPLKAFTVCLHFYTELSSTRGYSIFSYATKRQDNEILIFWSKDIGYSFTVGGSEILFEVPEVTVAPVHICTSWESASGIVEFWVDGKPRVRKSLKKGYTVGAEASIILGQEQDSFGGNFEGSQSLVGDIGNVNMWDFVLSPDEINTIYLGGPFSPNVLNWRALKYEVQGEVFTKPQLWP
modifications: pentamer
Turning to B3, the Kd in [9] is ~0.1 µM; in data set [10], ~0.05 µM. The “inhibitory effect of whole CRP on hLE” value in data set [11] is recorded as “no inhibitory effect”.

The Ki is the equilibrium dissociation constant of an inhibitor or competing ligand from its target. Lower therefore signals tighter binding. As usually defined, the Kd is the free concentration of one partner at which half of the binding sites on the other are occupied at equilibrium, for simple one-to-one binding.
